Reference: the supplement of paper PMC9732359
± gives the uncertainty stated by the source.

Assay: protein stability index of a GFP-peptide fusion (yeast GPS) (PSI 1-4); higher = more stable; sorted into four equal gates, so the index is relative within each strain
Summary of the method: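 For each peptide, the protein stability index sums the read frequency in every gate after multiplying it by the gate number. Read frequencies came from plasmids that were PCR-amplified from each gate and Illumina-sequenced, with reads assigned to strains by barcodes. The gates were four equal bins of GFP/Cherry fluorescence ratio applied to mid-log yeast in leucine-free medium carrying a pooled library of tiled 17-residue yeast protein peptides fused downstream of GFP on a Cherry-expressing plasmid.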

Row | Sequence | protein stability index (doa10∆) | protein stability index (pdr5∆) | protein stability index (san1∆) | protein stability index (ubr1∆)
1 | MGVIKKKRSHHGKASRQ [SNF6] | 3.15 ± 0.14 | 3.15 ± 0.12 | – | –
2 | SYNLEYIESKFCPGEIV [YMR129W/POM152] | 3.15 ± 0.13 | 3.21 ± 0.19 | 3.12 ± 0.14 | 3.21 ± 0.096
3 | APSLTVPPIASPQQFLR [PRE2] | 1.56 ± 0.05 | 1.95 ± 0.058 | 1.67 ± 0.071 | 1.65 ± 0.045
4 | DDINKAKAVWENIIIVG [ARP9] | 1.58 ± 0.05 | 2.17 ± 0.082 | 1.67 ± 0.092 | 2.03 ± 0.073
5 | MAKDNLTNLLSQLNIQL [SRP72] | 2.99 ± 0.077 | 3.13 ± 0.084 | 3.15 ± 0.074 | 2.96 ± 0.061
6 | MAESLVDLEEVMDTIQE [SSN8] | – | 3.02 ± 0.16 | 3.2 ± 0.19 | 3.2 ± 0.093
7 | YYGCLENDHERGFFHLN [CSN12] | 3.14 ± 0.063 | 3.24 ± 0.068 | 3.21 ± 0.047 | 3.26 ± 0.044
8 | MGENEKPDVTYADVGGL [RPT3] | 3.07 ± 0.18 | 3.41 ± 0.074 | 3.28 ± 0.1 | 3.31 ± 0.079
9 | AMQYVCGDSIICNTLNI [SMC1] | 1.57 ± 0.072 | 1.65 ± 0.065 | 1.5 ± 0.1 | 1.51 ± 0.071
10 | NLINLSIGASIADLASL [YCS4] | 2.45 ± 0.055 | 2.44 ± 0.052 | 2.39 ± 0.071 | 2.69 ± 0.042
11 | EIGLLGGRYVYPVHEAH [SNU114] | 1.85 ± 0.064 | 2.55 ± 0.091 | 2.79 ± 0.077 | 2.03 ± 0.084
12 | FRGARKNKGLVVSPYDY [DIB1] | 2.58 ± 0.077 | 2.54 ± 0.088 | 2.53 ± 0.09 | 2.82 ± 0.081
13 | YLKGATGHSQGLVTAVA [FAS1] | – | – | – | 3.86 ± 0.23
14 | VKKVQLGKKGVPYVVTH [RPS4A] | 1.77 ± 0.098 | 2.07 ± 0.13 | 3.06 ± 0.064 | 2.04 ± 0.071
15 | LKSTKHSISEAENMLEE [SMC4] | 3.06 ± 0.081 | 2.87 ± 0.12 | 3.06 ± 0.077 | 3.11 ± 0.05
16 | KILRDNIQGITKPAIRR [HHF1] | 3.17 ± 0.083 | 3.33 ± 0.077 | 3.08 ± 0.055 | 3.21 ± 0.058
17 | IVIDVDYNKKQDRIQDV [MED1] | 3.16 ± 0.15 | 3.13 ± 0.091 | 2.99 ± 0.094 | 3.09 ± 0.077
18 | KPGSTVMLLGTPDANLI [UBP6] | – | 3.58 ± 0.24 | – | 3.38 ± 0.12
19 | GGPWFTDGELDIEFINS [RPC34] | 3.14 ± 0.15 | 3.42 ± 0.12 | 2.55 ± 0.21 | 3.17 ± 0.081
20 | LESIQKTKEAVAALKAV [RPL4A] | – | 3.37 ± 0.2 | 2.82 ± 0.27 | 2.88 ± 0.17

Row | Sequence | protein stability index (doa10∆) | protein stability index (pdr5∆) | protein stability index (san1∆) | protein stability index (ubr1∆)
21 | LVKDRKFLREVFVDGEA [RPO21] | 3.1 ± 0.14 | 3.46 ± 0.27 | 2.62 ± 0.1 | 2.85 ± 0.21
22 | RVVRPKSLDAETEAEED [RPO21] | 2.25 ± 0.19 | 1.21 ± 0.13 | 1.21 ± 0.19 | 1.31 ± 0.29
23 | VMTYKGEVLGITRFGLS [RPO31] | 3.37 ± 0.16 | – | 3.09 ± 0.12 | 3.46 ± 0.29
24 | MSGSLKSLDKKIAKRRQ [POP3] | 3.19 ± 0.24 | 2.98 ± 0.21 | – | 3.5 ± 0.2
25 | PRRDGERKRKSVRGAIV [RPS6A] | 3.16 ± 0.099 | 3.29 ± 0.075 | 3.33 ± 0.072 | 3.05 ± 0.087
26 | QKLLKQLDSDANKLSKS [ISW2] | 3.03 ± 0.048 | 2.89 ± 0.053 | 2.92 ± 0.047 | 2.98 ± 0.04
27 | YNVCDTSKSLVKRYRLA [SIN4] | 2.39 ± 0.055 | 2.81 ± 0.058 | 2.58 ± 0.062 | 3.16 ± 0.042
28 | LALALGILYMGQGEQVD [RPN1] | 1.26 ± 0.16 | 1.5 ± 0.13 | 1.45 ± 0.13 | 1.23 ± 0.11
29 | ATFLKLAAPQLVQMYIG [RPT5] | 1.31 ± 0.25 | – | 1.2 ± 0.21 | 1.44 ± 0.23
30 | SASPHLAPNMQLNGNET [SNF2] | 3.23 ± 0.041 | 2.96 ± 0.043 | 3.1 ± 0.025 | 3.256 ± 0.032
31 | NLSIDEVAVPDRVAKVL [RPO31] | 3.09 ± 0.076 | 3.05 ± 0.073 | 3.11 ± 0.06 | 3.22 ± 0.045
32 | FGYDIPLLDIVLKADRS [YML103C/NUP188] | 2.14 ± 0.061 | 2.81 ± 0.073 | 2.82 ± 0.068 | 2.66 ± 0.057
33 | AVKTAETGYMSRRLMKS [RPO31] | 2.33 ± 0.13 | – | 2.52 ± 0.25 | –
34 | NIRSQLLSENRSEKSTT [SRP54] | 3.04 ± 0.06 | 3 ± 0.1 | 3.01 ± 0.055 | 3.13 ± 0.038
35 | CWLSSVDVNTQKSFEQL [RPN11] | 2.69 ± 0.095 | 1.28 ± 0.19 | 1.4 ± 0.29 | 1.35 ± 0.065
36 | EQQKEELTDKLSALNSE [SMC1] | – | 3.19 ± 0.11 | 2.73 ± 0.15 | 3.14 ± 0.12
37 | DVEENRSEFIESLLNWI [YJR042W/NUP85] | 3.19 ± 0.12 | 3.08 ± 0.085 | 3.35 ± 0.14 | 3.34 ± 0.069
38 | TEGHKGHEELKRRIEEE [ISW2] | 3.33 ± 0.085 | 3.42 ± 0.09 | 3.11 ± 0.068 | 3.23 ± 0.065
39 | ILLTSISRERDLFTHLW [SRP68] | 2.85 ± 0.13 | 2.71 ± 0.18 | 2.75 ± 0.1 | 2.73 ± 0.11
40 | GQQKIILSKKWGFTNLD [RPL10] | 2.68 ± 0.22 | – | – | 2.29 ± 0.21
